According to paper doi:10.1101/2020.12.28.424526 (bioRxiv, 2020):

Columns and labels:
[1] = molecular target: 5'-3' exoribonuclease-2 (XRN-2) (C. elegans (endogenous in worm lysate)) (UniProt Q9U299); assay: SDS-PAGE of the RNA-affinity purified complex
[2] = molecular target: T1, recombinant XRN-2 (C. elegans, UniProt Q9U299 1-975)
T1 sequence (looked up): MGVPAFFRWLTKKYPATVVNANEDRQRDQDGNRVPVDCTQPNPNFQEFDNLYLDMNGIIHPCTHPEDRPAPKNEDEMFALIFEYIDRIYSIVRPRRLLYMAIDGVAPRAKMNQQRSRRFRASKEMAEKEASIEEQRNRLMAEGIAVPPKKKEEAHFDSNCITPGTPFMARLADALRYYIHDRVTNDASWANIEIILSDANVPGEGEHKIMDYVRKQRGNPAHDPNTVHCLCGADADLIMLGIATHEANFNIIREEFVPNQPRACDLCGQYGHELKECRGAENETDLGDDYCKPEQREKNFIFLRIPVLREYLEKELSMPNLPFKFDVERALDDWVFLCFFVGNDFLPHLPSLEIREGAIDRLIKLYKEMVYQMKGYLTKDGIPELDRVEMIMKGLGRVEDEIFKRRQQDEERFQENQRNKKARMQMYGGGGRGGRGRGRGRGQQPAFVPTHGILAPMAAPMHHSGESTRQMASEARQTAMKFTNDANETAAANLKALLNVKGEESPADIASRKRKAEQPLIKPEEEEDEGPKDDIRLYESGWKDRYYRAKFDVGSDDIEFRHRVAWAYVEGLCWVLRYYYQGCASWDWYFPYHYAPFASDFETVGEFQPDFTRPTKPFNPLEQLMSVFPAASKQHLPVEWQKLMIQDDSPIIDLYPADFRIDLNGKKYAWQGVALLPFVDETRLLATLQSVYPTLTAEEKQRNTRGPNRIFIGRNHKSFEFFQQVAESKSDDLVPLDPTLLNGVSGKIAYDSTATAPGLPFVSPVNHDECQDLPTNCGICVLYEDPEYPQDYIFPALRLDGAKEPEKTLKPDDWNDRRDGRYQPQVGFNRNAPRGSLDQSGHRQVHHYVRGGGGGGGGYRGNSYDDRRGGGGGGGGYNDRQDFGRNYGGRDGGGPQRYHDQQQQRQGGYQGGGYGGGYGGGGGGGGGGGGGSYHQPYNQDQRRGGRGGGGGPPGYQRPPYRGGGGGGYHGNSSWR

[3] = molecular target: T2, 5'-3' exoribonuclease-2 (XRN-2) (C. elegans (endogenous in worm lysate), UniProt Q9U299 1-975); assay: SDS-PAGE of the RNA-affinity purified complex
T2 sequence (looked up): T1 sequence (looked up)

Molecule: NOL-58 (natural protein)
- stoichiometry N [1]: 1

Molecule: miRNasome-1.4 (B0024.11) (natural protein)
- stoichiometry N [1]: 1

B1: recombinant NOL-58 (natural protein, C. elegans, UniProt O45012 1-487, looked up)
chain: MLVLFEVAAGYAVFKLSNEKKLKNVDNIWEEFSTAEKAQENLQLVSFKKFKTTAGAVEATSEITEGKLSKTLKKLLKSSVDETEKLAVGDAKLGNLIKEKLSLNCVHDSSINELMRGVRAHIEDLLAEHKEEMNAMNLAVAHSLARYKVKFNPEKIDTMIVQAVSLLDDLDKELNNYVMRVREWYGWHFPELGKTIQDHQAYAKIIKAIGMRQNCINTDLSSILPEELEEKVKEDAEISMGTDISDIDLIHIKGLCDQVIELSAYRAQLFDYLKNRMTALAPNLTVLLGELVGARLISHAGSLVSLAKAPASTIQILGAEKALFRALKTKKDTPKYGLIYHAQLITQAPPKVKGKMARKLAAKCSLATRIDALSDESATNEIGIECRAALENVLRTESERGPSKNKSFGSHRHDKYEFKSETYEYDASADTPASRKHKRFDDNEESTNAIKKMKIEEVKEEDEAEPEKKKKKKEKKAKKADTDSDEE
- stoichiometry N [2]: 1

B2: partner of XRN two-1 (PAXT-1) (natural protein, C. elegans (endogenous in worm lysate), UniProt Q21738 1-335, looked up)
chain: MGKLEDVEAEKKLWESDDAWELRKAFMLAHYDDYPKIQLQCLSQLFINVTLLGCEYSQTLMQKIRTMGAGIAANKDRTKTGSYVKASAAKKRQAVKTSDLEGASDESKKVKMEKSPSPVARESFDERLGKLKASLAMTPHHLTGEQMMKTATNSCLMKWHVNKINQKIEITIDRYVAFRHTFSQYCVDPRDCAINTLIESILSCDAAVHEESYEIRFDGVPVDECYAKSVTRRLAKIKSAVSNGAHTVKGLTTYLDAVNMSMIQNTQKLEGWSQQLDLVTADLLLSSRVLSSTECTKPAMATIANQMSEDVCQLILNDKINVINSMKSHSSLAFQ
- stoichiometry N [3]: 1

B3: recombinant PAXT-1 (natural protein, C. elegans, UniProt Q21738 1-335, looked up)
chain: B2 chain
- stoichiometry N [2]: 1

B4: recombinant miRNasome-1.4 (natural protein, C. elegans, UniProt Q17426 1-577, looked up)
chain: METEFGLTEYASEHTITPVPCLLKEMYSDFIVQEILADHTVLAIPSPDVVLESTGSKKEDIEIEECVAKPDCISEETLAALNDRFSTKGDPVLVKVDDLSKEDRKSIHHFIRERYAGVLITETKEDGILVSHGHTKSSRKRKLWDEKVPKECHFTICKENKETSFACQLIAKFLNVGPNNIRTHGIKDKRAVTSQRVSVTKVHERTILDLNSKLRGIRVFGCEYKDDPVQMGAHWGNRFSIVLRSLPDDSEQLLHQRLETFQNTGFINYFGTQRFGSRSSTTAEIGLAIVKRDWEKAVKMIMTNAMPDHLGYGSVGYAAKCFSQTGDARKAFSKLKGAQAFATVEGNILKCLSKGGTWQNCITEAIPIQSRSLYVHAYQSLIWNKVASRRVKEYGTRVHESDVGANGFSLGEHATHYDIHIPLPGENLPFEGSYGAKWISELLEEDGLTQSSFTALKDRFSLGESSRCLFVEAKELKWKFIRYGNARDLLQDGLQTRAIPEAEQKGPLLALQIQFSLISGSYATVALREVTGSDMGKKAMRDASFKTRGDDEKTEENVLEEKGSDDANELNLVSEDQ
- stoichiometry N [2]: 1
